# Experimental data taken from the supplement of paper PMC10567573.
# ± gives the standard deviation.
# Experiment: protein stability index of a GFP-peptide fusion (GPS, HEK-293T) (PSI 1-6); higher = more stable
# [1] = treatment: DMSO, c terminus: a fixed tail appended
# [2] = treatment: MLN4924 1 uM, 8 h, c terminus: a fixed tail appended
# 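Further: 24-mer peptide tiles fused after GFP, lentivirally expressed, FACS-sorted into six equal bins by GFP/DsRed ratio, decoded by Illumina sequencing, PSI is the read-weighted mean bin number.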
Sequence,protein stability index [1],protein stability index [2],"protein stability index (treatment: DMSO, c terminus: native)","protein stability index (treatment: MLN4924 1 uM, 8 h, c terminus: native)"
SHLCSCLAMLALLSPLSLAQYDSW [LOXL2],3.02 ± 0.29,2.96 ± 1.2,,
DGSVVRDFEHRPKAPVVECSITGD [WDR88],5.4 ± 0.21,5.32 ± 0.16,,
REPDWGDGDAPGSLLPAQVAACAQ [CEBPD],5.04 ± 0.28,4.99 ± 0.47,,
ELKTKLTKLEAEIVTLRHVLAAKE [TPD52L3],3.44 ± 0.27,3.64 ± 0.23,,
ETLSGHGPLAQPLTLQVLVAGNPQ [ADAMTS4],3 ± 0.43,2.98 ± 0.31,,
PSSLGPLLPLQREPLYNWQATKAS [BTBD1],3.36 ± 0.21,3.5 ± 0.14,,
RLKKVENIKIWLSLRSYLKRRGPQ [PHTF1],2 ± 0.65,2.25 ± 0.64,,
ARIVEIYSRRLQVQERLTKQIAVA [GCH1],2.33 ± 0.37,2.37 ± 0.2,,
IWAFLDVSFVERILKSQKERQCAL [FBXO39],2.41 ± 0.53,2.24 ± 0.17,,
AVPPTSSVPPVAGAPSVGQPGAGF [SNAP91],4.53 ± 0.23,4.42 ± 0.086,,
TSFCGQQFILERGEYPRWDAWSGS [CRYBA1],2.77 ± 0.68,2.65 ± 0.39,,
IVDKCTELLREGRASATTTITTAA [ZBTB22],3.78 ± 0.1,3.74 ± 0.18,,
RRMAESLRIPEGPIDQGPAIGRVR [FUT8],4.22 ± 0.17,4.43 ± 0.18,,
CICGFTHDDGYMICCDKCSVWQHI [KMT2E],3.19 ± 0.39,3.29 ± 0.41,,
KPDYEYLRTLFTDLFEKKGYTFDY [CSNK1G1],2.4 ± 0.47,2.31 ± 0.15,,
IYSTDLHKLDLNTREWTQLKPNNL [KLHDC10],2.65 ± 0.18,2.81 ± 0.15,,
LRLRKERVSDVQKVLQGGEQEIQF [PKD2L1],3.74 ± 0.17,3.77 ± 0.34,,
TCTLLLLYSLAPTMGAVVLSSTLL [MFSD9],3.22 ± 0.52,3.17 ± 0.28,,
ALRERWLLEGTPSSASEGDEDLRR [PALM],5 ± 0.25,5.14 ± 0.21,,
TGLNNGRIKIWDVYTGKLLLNLVD [WSB1],2.54 ± 1.3,2.25 ± 0.61,,
GCFTLPRSEPIRPIDPAAWVSHTA [DVL3],2.81 ± 0.25,3 ± 0.42,,
DHLGWVARGTGSGEDSSTSSSTPL [RTN2],4.73 ± 0.18,4.54 ± 0.25,,
LEALLEAAGIGKLSTADGKAFADP [ANKRD17],3.42 ± 0.38,3.31 ± 0.15,,

Sequence,protein stability index [1],protein stability index [2],"protein stability index (treatment: DMSO, c terminus: native)","protein stability index (treatment: MLN4924 1 uM, 8 h, c terminus: native)"
HLAPSEAKAADSPTRNDLESGLGH,5.14 ± 0.34,5.37 ± 0.058,,
KLYGQRERVWALAQEKAADVQARL [FCHSD1],3.51 ± 0.32,3.49 ± 0.3,,
VNVTIHFRLKTINLQSLINNEIPD [MCOLN1],3.28 ± 0.25,3.21 ± 0.25,,
LEQFVAILPKELQTWVRDHHPENG [ZNF24],3.2 ± 0.1,3.23 ± 0.21,,
AAARAAQRRRRVENAGGSPSPEPA [RSAD1],5.25 ± 0.087,5.12 ± 0.44,,
SGLGSCLPGSYLSSECHTSGFVGS [KRT36],2.62 ± 0.32,2.69 ± 0.23,,
LLESSSSYKNLTLKFHKLVNVTIH [MCOLN1],2.58 ± 0.41,2.33 ± 0.55,,
SFVYGAVPIGASIYVIGDLDTGTN [GAN],2.35 ± 0.32,2.29 ± 0.61,,
QALSGTPKKGPAPSLSPGSSCVKY [TSPAN10],4.16 ± 0.059,4.37 ± 0.22,,
DPNKMAFGCEECGKKYNTMLGYKR [PLAGL1],3.07 ± 0.49,3.46 ± 0.64,,
LMAPTCVFLASKVEEFGVVSNTRL [CCNC],2.2 ± 0.34,2.21 ± 0.14,,
RPEELLQMELLLVNKLKWNLAAMT [CCND1],2.68 ± 0.71,2.52 ± 0.66,,
GHHAEKLPAGAGAPKAGLEEAPAV [TNFSF13B],5.22 ± 0.3,5.27 ± 0.2,,
RGCLHSHGLQEGKDLFTQRQNSAP [CDC25A],3.72 ± 0.36,3.62 ± 0.33,,
GQYRANEGTSSIVMEIQKQIEKKE [TAF7L],5.06 ± 0.35,5.16 ± 0.46,,
GVGAVPGPGTPTGPSLPSKRESPG [ZBTB22],5.41 ± 0.29,5.21 ± 0.14,,
LTLAQGAGEEDPSGMVTIITGLPL [SMG5],2.98 ± 0.43,2.76 ± 0.44,,
FGEVRPYFYLGGARGAGPPEPLRI [TRIM35],2.63 ± 0.91,2.76 ± 0.18,,
LRSRYSVASFKFDAGEVSYLPRDF [MYORG],2.37 ± 0.12,2.42 ± 0.37,,
VLVLAVQVHAWQLYYSKKLLDSWF [JAGN1],3.23 ± 0.49,3.06 ± 0.91,,
RSSEFYRVTTEQYQKAAEEVEAKF [CHCHD3],4.88 ± 0.32,4.78 ± 0.074,,
KHAAFVTPDQKYSMDNTPHTPTPF [MYBL2],3.84 ± 0.25,3.84 ± 0.35,,
GPMEEVERQVLPDPEVLEAVGDRQ [PBXIP1],5.62 ± 0.25,5.59 ± 0.21,,

Sequence,protein stability index [1],protein stability index [2],"protein stability index (treatment: DMSO, c terminus: native)","protein stability index (treatment: MLN4924 1 uM, 8 h, c terminus: native)"
HQRTHSEEETYKCLECGKSFCHGS [ZNF449],4.63 ± 0.3,4.59 ± 0.3,,
NTKEKIAFFASHQCSNRIGSMKIK [FBXO34],2.79 ± 0.19,2.72 ± 0.46,,
IFEDRIRGIDIIKWMERYLRDKTV [TRAF3IP2],2.02 ± 0.56,1.99 ± 0.23,,
NKGTRFSEAWEYFHLAPARAGHHP [ZBED2],2.64 ± 0.16,2.96 ± 0.22,,
FSEQVFKVASSDLVNMGISVVSYT [FLOT1],2.66 ± 0.72,2.39 ± 0.44,,
MEAVLNELVSVEDLLKFEKKFQSE [FIS1],3.69 ± 0.25,3.65 ± 0.27,,
GLTFQGLLPLTELSVCPLEGSREH [PLEKHN1],3.57 ± 0.35,3.62 ± 0.35,,
DLASAAAKQIMEETYKMEFMYSGV [INTS4],2.58 ± 0.52,2.5 ± 0.16,,
LDCADALLKAGADVNKTDHSQRTA [INVS],5.09 ± 0.38,5.13 ± 0.43,,
ERDRISTRRSSYEDSSLPSINALL [HNF4A],3.79 ± 0.097,3.84 ± 0.49,,
EKLLERQGQAKTPDSMFLAMLAVV [CDK11A],1.95 ± 0.21,2.2 ± 0.55,,
YRQWHAKIFVENLRRQKSLRLEWE [IQUB],2.29 ± 0.54,1.87 ± 0.28,,
AIHGYTVWAHNLIAIARLRGSDLK [FBXO33],3.13 ± 0.8,2.46 ± 0.42,,
TLAQTISEAAIGGAMLGQTTSEEA [HDAC6],4.66 ± 0.32,4.78 ± 0.28,,
DEDSEPEREVRAKNGRVDSEDRRS [USP39],5.62 ± 0.33,5.517 ± 0.016,,
FKLLAGRWPFDHNDFGVFLCKLFP [EDNRA],2.34 ± 0.37,2.5 ± 0.38,,
YERSFIHKIKHKHILAKNYFSQVP [IQUB],2.12 ± 0.61,2.24 ± 0.27,,
KNGLSFIETSALDSTNVEAAFQTI [RAB11A],3.31 ± 0.27,3.56 ± 0.43,,
WFGASVLSLLELLELLLDASALTL [SCNN1D],2.54 ± 0.74,2.15 ± 0.31,,
LQTPLDIRLKESINCQLSDPSSTK [TRIM14],4.62 ± 0.29,4.55 ± 0.34,,
SCPFFETSAAYRYYIDDVFHALVR [RIT1],2.41 ± 0.36,2.54 ± 0.38,,
VNEKLPQREGTGKTVSLQIFSVLN [SMOC2],2.7 ± 0.37,2.84 ± 0.4,,
GSSNVGINRWRFLLQCLEDLDANL [CRY1],2.48 ± 0.52,2.4 ± 0.13,,

Sequence,protein stability index [1],protein stability index [2],"protein stability index (treatment: DMSO, c terminus: native)","protein stability index (treatment: MLN4924 1 uM, 8 h, c terminus: native)"
EHQYRLPPMGKAFQELAGKELCAM [SPDEF],3.19 ± 0.26,3.23 ± 0.098,,
KGLLKKGACYGDDACFVARHRSAD [PPTC7],4.16 ± 0.56,4.05 ± 0.25,,
GLPGPEAARSGDAAANKLFHYIPG [PLEKHN1],3.93 ± 0.38,4.15 ± 0.42,,
ALKDNKSPLHLVQMPPVIVETARS [PI4K2A],3.8 ± 0.29,3.82 ± 0.29,,
LAYYEVCSWKGATKQRIQDQKVPY [CHIT1],2.71 ± 0.4,2.8 ± 0.37,,
RLLSVPELCHHVAEVWVSGTIFIR [RETREG3],2.96 ± 0.4,2.69 ± 0.53,,
DILWEHLEQMIKENQEKTEDQYEE [ETS2],5.02 ± 0.21,5.22 ± 0.2,,
LEVKIRDWYQRQRPSEIKDYSPYF [KRT16],2.19 ± 0.2,2.24 ± 0.49,,
THACREYLKNLPLLSKYCGYREDN [TPH1],2.22 ± 0.26,2.18 ± 0.41,,
LLREEEYVAPPRGPLPTLQVVPL [TRAF3IP2],,,2.35 ± 0.3,2.05 ± 0.33
GLDPCLLEDELDKSVQGTGLAFIA [SLC6A17],3.28 ± 0.31,3.28 ± 0.44,,
MLCAASGNPDPEITWFKDFLPVDT [PTPRD],2.95 ± 0.66,3.23 ± 0.42,,
AQGRAGAPVPEPPKEEQQQALEQF [EPB41L3],5.62 ± 0.27,5.34 ± 0.3,,
TRTAEPAESSVPPVTSIGIDNLGL [SLC35F2],4.48 ± 0.27,4.49 ± 0.11,,
QQQIHHIKNLYAFNLFCQKRFDES [VPS39],2.29 ± 0.11,2.42 ± 0.15,,
DEGGITKQPPVTQSKTASDKSPST [FBF1],5.44 ± 0.21,5.56 ± 0.19,,
IGYVHIYLKGQREKSEKINAMLKG [GOSR1],2.21 ± 0.14,2.67 ± 0.17,,
RSKESKDCSGLVLLCLFFGIPWEA [PCDHGA10],3.15 ± 0.37,2.48 ± 0.61,,
GKKYNTMLGYKRHLALHAASSGDL [PLAGL1],3.15 ± 0.12,3.28 ± 0.27,,
LIKKYSDHLENVSKLVESGIQFMD [TRIM55],2.27 ± 0.18,2.66 ± 0.2,,
